In the MegaScale stability set (Tsuboyama et al. 2023):

B1: 2K2A (parent)
chain: ELREAFRLYDKEGNGYISTDVMREILAELDETLSSEDLDAMIDEIDADGSGTVDFEEFMGVMT

Variants of: B1
Test: folding stability dG (cDNA display proteolysis); higher = more stable
Settings: PBS, room temperature

Row | Variant | folding stability dG [kcal/mol]
1 | ELREAFRLYDKEGNGYISTDVMREILAELDETLSSEDLRAMIDEIDADGSGTVDFEEFMGVMT [D39R] | 1.41
2 | ELREAFRLPDKEGNGYISTDVMREILAELDETLSSEDLDAMIDEIDADGSGTVDFEEFMGVMT [Y9P] | 0.057
3 | ELREAFRLYDKEGNGYISTDVMREILAELDETLSSEDLDAMIDEIPADGSGTVDFEEFMGVMT [D46P] | -0.155
4 | ELREAFRLYDKEGNGYISTDVMREILAELDETLSSEDLDAMIDEIFADGSGTVDFEEFMGVMT [D46F] | 0.726
5 | ELREAFRLYDKEGNGYISTDVMREILAELDETLSSEDLDAMIDEIMADGSGTVDFEEFMGVMT [D46M] | 0.648
6 | ELREAFRLYDKEGNGYISTDVMREILAELDETLSSEDLDAMIDEICADGSGTVDFEEFMGVMT [D46C] | 0.854
7 | ELREAFRLYYKEGNGYISTDVMREILAELDETLSSEDLDAMIDEIDADGSGTVDFEEFMGVMT [D10Y] | 1.15
8 | ELREAFRLYMKEGNGYISTDVMREILAELDETLSSEDLDAMIDEIDADGSGTVDFEEFMGVMT [D10M] | 1.39
9 | ELREAFRLYDKEGNGYISTDVMREILAELDETLSSEDLDAGIDEIDADGSGTVDFEEFMGVMT [M41G] | 0.01
10 | ELREAFRLYDKEGNGYISTDVMREILAELDETLSSEDLDAMIDEIDADGSGTVDFEEFMTVMT [G60T] | 2.37
11 | ELREAFRLYDKEGNGYISTDVMREILAELHETLSSEDLDAMIDEIDADGSGTVDFEEFMGVMT [D30H] | 2.08
12 | ELREAFRLYDKEGNGYISTDVMREILAELCETLSSEDLDAMIDEIDADGSGTVDFEEFMGVMT [D30C] | 1.97
13 | ELREAFRLYDKEGNGYISTDSMREILAELDETLSSEDLDAMIDEIDADGSGTVDFEEFMGVMT [V21S] | 1.94
14 | ELREAFRLYDKEGNGYISTDVMREILAELDETLSSNDLDAMIDEIDADGSGTVDFEEFMGVMT [E36N] | 1.66
15 | ELRPAFRLYDKEGNGYISTDVMREILAELDETLSSEDLDAMIDEIDADGSGTVDFEEFMGVMT [E4P] | 0.889
16 | ELRGAFRLYDKEGNGYISTDVMREILAELDETLSSEDLDAMIDEIDADGSGTVDFEEFMGVMT [E4G] | 0.935
17 | ELRNAFRLYDKEGNGYISTDVMREILAELDETLSSEDLDAMIDEIDADGSGTVDFEEFMGVMT [E4N] | 1.4
18 | ELREAFRLYDKEGNGYISTDVMREILAELDETLSSEDLDAMIDEIDADGSGTVDFEEFMGVMQ [T63Q] | 1.83
19 | ELREAFRLYDKEGNGEISTDVMREILAELDETLSSEDLDAMIDEIDADGSGTVDFEEFMGVMT [Y16E] | 0.315
20 | ELREAFRLYDKEGNGYICTDVMREILAELDETLSSEDLDAMIDEIDADGSGTVDFEEFMGVMT [S18C] | 1.29
21 | ELREAFRLYDKEGNGYIWTDVMREILAELDETLSSEDLDAMIDEIDADGSGTVDFEEFMGVMT [S18W] | 0.742
22 | ELREAFRLYDKEGNGYIDTDVMREILAELDETLSSEDLDAMIDEIDADGSGTVDFEEFMGVMT [S18D] | 0.936

Row | Variant | folding stability dG [kcal/mol]
23 | ELREAFRLYDKEGNGYISTDVMREILAELDETLSSEDKDAMIDEIDADGSGTVDFEEFMGVMT [L38K] | 0.304
24 | ELREAFRLYDKEGNGYISTDVMREILAELDETLSSEDYDAMIDEIDADGSGTVDFEEFMGVMT [L38Y] | 0.134
25 | ELREAFRLYDKEGNGYISTDVMREILAVLDETLSSEDLDAMIDEIDADGSGTVDFEEFMGVMT [E28V] | 1.76
26 | ELREAFRLYDKEGNGYISTDVMREILAPLDETLSSEDLDAMIDEIDADGSGTVDFEEFMGVMT [E28P] | -0.155
27 | ELREAFRLYDKEGNGYISTDVMREILAMLDETLSSEDLDAMIDEIDADGSGTVDFEEFMGVMT [E28M] | 2.28
28 | ELREAFRLYDKEGNGYISTDVMREILAELDETLSSEDLDAMIDEIDADGSGTVHFEEFMGVMT [D54H] | 1.68
29 | ELREAFRLYDKEGNGYISTDVMREILAELDETLSSEDLDAMKDEIDADGSGTVDFEEFMGVMT [I42K] | -0.287
30 | ELREAFRLYDKEGNGYISTDVMREILAELDETLSSEDLDAMNDEIDADGSGTVDFEEFMGVMT [I42N] | -0.359
31 | ELREAFRLYDKEGNGYISTDVMREILAELDETLSSEDLDAMLDEIDADGSGTVDFEEFMGVMT [I42L] | 1.73
32 | ELREAFRLYDKEGNGYISTDVMREILAELDETLSSEDLDAMADEIDADGSGTVDFEEFMGVMT [I42A] | -0.231
33 | ELREACRLYDKEGNGYISTDVMREILAELDETLSSEDLDAMIDEIDADGSGTVDFEEFMGVMT [F6C] | 1.79
34 | ELREALRLYDKEGNGYISTDVMREILAELDETLSSEDLDAMIDEIDADGSGTVDFEEFMGVMT [F6L] | 0.489
35 | ELREAIRLYDKEGNGYISTDVMREILAELDETLSSEDLDAMIDEIDADGSGTVDFEEFMGVMT [F6I] | 0.623
36 | ELREANRLYDKEGNGYISTDVMREILAELDETLSSEDLDAMIDEIDADGSGTVDFEEFMGVMT [F6N] | 0.361
37 | ELREASRLYDKEGNGYISTDVMREILAELDETLSSEDLDAMIDEIDADGSGTVDFEEFMGVMT [F6S] | 0.268
38 | ELREATRLYDKEGNGYISTDVMREILAELDETLSSEDLDAMIDEIDADGSGTVDFEEFMGVMT [F6T] | 0.266
39 | ELREAFRLYDKEHNGYISTDVMREILAELDETLSSEDLDAMIDEIDADGSGTVDFEEFMGVMT [G13H] | 1.15
40 | ELREAFRLYDTEGNGYISTDVMREILAELDETLSSEDLDAMIDEIDADGSGTVDFEEFMGVMT [K11T] | 1.94
41 | ELREAFRLYDAEGNGYISTDVMREILAELDETLSSEDLDAMIDEIDADGSGTVDFEEFMGVMT [K11A] | 1.74
42 | ELREAFRLYDKEGNGYISTDVMREILPELDETLSSEDLDAMIDEIDADGSGTVDFEEFMGVMT [A27P] | -0.602
43 | ELREAFRLYDKEGMGYISTDVMREILAELDETLSSEDLDAMIDEIDADGSGTVDFEEFMGVMT [N14M] | 1.78
